The target in assay [1] is SARS-CoV-2刺突S1亚基蛋白(Sino公司，货号:40591-V02H) (SARS-CoV-2, UniProt P0DTC2 16-685).
Assay [2] deals with T1, SARS-CoV-2刺突S1-His重组蛋白(Sino公司，货号:40591-V08H) (SARS-CoV-2, UniProt P0DTC2 16-685).
T1 construct: domain: S1; also called S1蛋白; 刺突蛋白S1
Nature of the assay: ELISA; S1-His coated at 1.0 μg/mL, goat anti-human IgG-HRP detection. A general note: ELISA stands for enzyme-linked immunosorbent assay.

B1: 抗SARS-CoV-2的单克隆抗体2B11 (antibody, V domains shown)
VH: EVQLVESGGGLVQPGGSLRLSCAASEITVSSNYMNWVRQAPGKGLEWVSVIYSGGTTYYADSVKGRFTISRDNSENTLYLQMNSLRAEDTAVYYCARDLMEVGGMDVWGQGTTVTVSS
VL: LPVLTQPPSASGTPGQRVTISCSGSSSNVENDNVNWFQQQVPGSTPKLVIYNDRLRPSGVPDRFSGSKSGTSAYLAISGLQSEDEADYYCVAWDASLQSYVFGTGTKVTVL
notes: also called 2B11抗体; 人源抗SARS-CoV-2抗体2B11
The IC50 is the concentration that inhibits the measured activity by half. Broadly, the EC50 is the concentration needed to bring the measured effect to its halfway point. Read a high EC50 as weaker potency. In assay [1], B1 yielded an IC50 of 2.79 nM. Besides, a half-maximal effect in assay [2] (EC50) was put at 0.051 nM.

For the origin of these results see patent publication CN112521494A (WUHAN INST OF BIOLOGICAL PRODUCTS CO LTD, dated 2021).
